Data as given in doi:10.1101/2021.01.21.427698 (bioRxiv, 2021).

B2: human SEPT2 with a TEV-cleavable N-terminal His6-tag (natural protein)
chain: MSKQQPTQFINPETPGYVGFANLPNQVHRKSVKKGFEFTLMVVGESGLGKSTLINSLFLTDLYPERVIPGAAEKIERTVQIEASTVEIEERGVKLRLTVVDTPGYGDAINCRDCFKTIISYIDEQFERYLHDESGLNRRHIIDNRVHCCFYFISPFGHGLKPLDVAFMKAIHNKVNIVPVIAKADTLTLKERERLKKRILDEIEEHNIKIYHLPDAESDEDEDFKEQTRLLKASIPFSVVGSNQLIEAKGKKVRGRLYPWGVVEVENPEHNDFLKLRTMLITHMQDLQEVTQDLHYENFRSERLKRGGRKVENEDMNKDQILLEKEAELRRMQEMIARMQAQMQMQMQGGDGDGGALGHHV
B3: human SEPT6 (natural protein)
chain: MAATDIARQVGEGCRTVPLAGHVGFDSLPDQLVNKSVSQGFCFNILCVGETGLGKSTLMDTLFNTKFEGEPATHTQPGVQLQSNTYDLQESNVRLKLTIVSTVGFGDQINKEDSYKPIVEFIDAQFEAYLQEELKIRRVLHTYHDSRIHVCLYFIAPTGHSLKSLDLVTMKKLDSKVNIIPIIAKADAISKSELTKFKIKITSELVSNGVQIYQFPTDDESVAEINGTMNAHLPFAVIGSTEELKIGNKMMRARQYPWGTVQVENEAHCDFVKLREMLIRVNMEDLREQTHTRHYELYRRCKLEEMGFKDTDPDSKPFSLQETYEAKRNEFLGELQKKEEEMRQMFVQRVKEKEAELKEAEKELHEKFDRLKKLHQDEKKKLEDKKKSLDDEVNAFKQRKTAAELLQSQGSQAGGSQTLKRDKEKKN

What was measured:
[1] = target: the molecule itself; assay: negative-stain single-particle electron microscopy
[2] = target: B3; assay: two-tag affinity co-purification of co-expressed proteins
[3] = target: B2

B1: human SEPT9_i3 with a noncleavable C-terminal Strep-tag-II (as in the mammalian octamers-9_i3) (natural protein)
chain: MERDRISALKRSFEVEEVETPNSTPPRRVQTPLLRATVASSTQKFQDLGVKNSEPSARHVDSLSQRSPKASLRRVELSGPKAAEPVSRRTELSIDISSKQVENAGAIGPSRFGLKRAEVLGHKTPEPAPRRTEITIVKPQESAHRRMEPPASKVPEVPTAPATDAAPKRVEIQMPKPAEAPTAPSPAQTLENSEPAPVSQLQSRLEPKPQPPVAEATPRSQEATEAAPSCVGDMADTPRDAGLKQAPASRNEKAPVDFGYVGIDSILEQMRRKAMKQGFEFNIMVVGQSGLGKSTLINTLFKSKISRKSVQPTSEERIPKTIEIKSITHDIEEKGVRMKLTVIDTPGFGDHINNENCWQPIMKFINDQYEKYLQEEVNINRKKRIPDTRVHCCLYFIPATGHSLRPLDIEFMKRLSKVVNIVPVIAKADTLTLEERVHFKQRITADLLSNGIDVYPQKEFDEDSEDRLVNEKFREMIPFAVVGSDHEYQVNGKRILGRKTKWGTIEVENTTHCEFAYLRDLLIRTHMQNIKDITSSIHFEAYRVKRLNEGSSAMANGVEEKEPEAPEM
[1]
  binding result: binds

## B2
[2]
  binding result: binds

## B3
[3]
  stoichiometry N: 1
